The values below come from the supplement of paper PMC9112550, “Optimization of the antimicrobial peptide Bac7 by deep mutational scanning” (BMC Biology, 2022).
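Further: peptides expressed intracellularly from a pBAD plasmid library in pooled LB shake-flask culture, induced with 0.3% L-arabinose, DNA abundance read by NGS, three biological replicates, DESeq2 with apeglm shrinkage.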

The series deals with Escherichia coli TOP10. The series can be described thus: shrunken log2 fold change of peptide-encoding DNA abundance (4.5 h post-induction vs induction); higher = less antimicrobial activity (less host growth inhibition). The settings on record: time post-induction: 4.5 h; library: site-saturation at positions 5, 18, 19, 20.
In the case of RRIRNRPPRLPRPRPRPDNFPRP, the “shrunken log2 fold change” value is -0.00141.

Take RRIRLRPPRLPRPRPRPQATPRP: the “shrunken log2 fold change” value was -0.0468.

For RRIRFRPPRLPRPRPRPTIVPRP, the “shrunken log2 fold change” value is 0.0438.

Consider RRIRQRPPRLPRPRPRPVAPPRP, for which the “shrunken log2 fold change” value worked out at 0.357.

Take RRIRGRPPRLPRPRPRPEHGPRP: the “shrunken log2 fold change” value came out at 0.602.

With RRIRIRPPRLPRPRPRPTFQPRP, the “shrunken log2 fold change” value is -0.0244.

Turning to RRIRNRPPRLPRPRPRPMVHPRP, the “shrunken log2 fold change” value is -0.00783.

As to RRIRQRPPRLPRPRPRPSNAPRP, the “shrunken log2 fold change” value is -0.198.

Take RRIRPRPPRLPRPRPRPIVQPRP: the “shrunken log2 fold change” value is -0.135.

RRIRERPPRLPRPRPRPHICPRP: the “shrunken log2 fold change” value worked out at 0.0721.

Consider RRIRLRPPRLPRPRPRPLFNPRP, for which the “shrunken log2 fold change” value was -0.468.

In the case of RRIRGRPPRLPRPRPRPLNYPRP, the “shrunken log2 fold change” value was found to be 0.131.

Turning to RRIRRRPPRLPRPRPRPRIIPRP, the “shrunken log2 fold change” value came to 0.0728.

With RRIRNRPPRLPRPRPRPEMRPRP, the “shrunken log2 fold change” value was -0.0181.

RRIRPRPPRLPRPRPRPIRGPRP: the “shrunken log2 fold change” value was 0.182.

RRIRKRPPRLPRPRPRPQCRPRP: the “shrunken log2 fold change” value was 0.162.

With RRIRMRPPRLPRPRPRPCNDPRP, the “shrunken log2 fold change” value is -0.165.

For the sequence RRIRNRPPRLPRPRPRPGQVPRP, the “shrunken log2 fold change” value turned out to be 0.0381.

As for RRIRLRPPRLPRPRPRPFSQPRP, the “shrunken log2 fold change” value is -0.0811.

On to RRIRWRPPRLPRPRPRPCTEPRP, for which the “shrunken log2 fold change” value was -0.0149.

For RRIRCRPPRLPRPRPRPSVLPRP, the “shrunken log2 fold change” value stood at 0.0648.

Regarding RRIRLRPPRLPRPRPRPVAVPRP, the “shrunken log2 fold change” value turned out to be 0.0513.

Regarding RRIRVRPPRLPRPRPRPKSLPRP, the “shrunken log2 fold change” value was -0.0854.

Consider RRIRYRPPRLPRPRPRPKPWPRP, for which the “shrunken log2 fold change” value was determined as 0.03.

For RRIRCRPPRLPRPRPRPMISPRP, the “shrunken log2 fold change” value was -0.235.

For the sequence RRIRLRPPRLPRPRPRPLYQPRP, the “shrunken log2 fold change” value is -0.833.

For RRIRTRPPRLPRPRPRPELKPRP, the “shrunken log2 fold change” value was found to be 0.432.

For the sequence RRIRKRPPRLPRPRPRPWLPPRP, the “shrunken log2 fold change” value was 0.0665.

RRIRARPPRLPRPRPRPTAYPRP: the “shrunken log2 fold change” value stood at 0.223.

Turning to RRIRIRPPRLPRPRPRPKHPPRP, the “shrunken log2 fold change” value was -0.0675.

As for RRIRWRPPRLPRPRPRPYCKPRP, the “shrunken log2 fold change” value was -0.864.

RRIRSRPPRLPRPRPRPQWTPRP: the “shrunken log2 fold change” value is -0.0105.

Take RRIRCRPPRLPRPRPRPHHDPRP: the “shrunken log2 fold change” value is -0.58.

As to RRIRPRPPRLPRPRPRPGPDPRP, the “shrunken log2 fold change” value turned out to be 0.28.

RRIRNRPPRLPRPRPRPYTAPRP: the “shrunken log2 fold change” value is -0.502.

Consider RRIRQRPPRLPRPRPRPNTNPRP, for which the “shrunken log2 fold change” value is -0.47.

Regarding RRIRERPPRLPRPRPRPPCIPRP, the “shrunken log2 fold change” value was -0.163.

For RRIRHRPPRLPRPRPRPWTNPRP, the “shrunken log2 fold change” value was -0.101.

On to RRIRVRPPRLPRPRPRPGMDPRP, for which the “shrunken log2 fold change” value amounted to 0.225.

With RRIRARPPRLPRPRPRPNMGPRP, the “shrunken log2 fold change” value came out at 0.137.

In the case of RRIRERPPRLPRPRPRPDFNPRP, the “shrunken log2 fold change” value was -0.175.

On to RRIRGRPPRLPRPRPRPGRHPRP, for which the “shrunken log2 fold change” value worked out at 0.314.

For RRIRARPPRLPRPRPRPHGVPRP, the “shrunken log2 fold change” value is 0.0905.

With RRIRARPPRLPRPRPRPQCAPRP, the “shrunken log2 fold change” value amounted to 0.216.

Take RRIRGRPPRLPRPRPRPHGPPRP: the “shrunken log2 fold change” value is 0.426.

Regarding RRIRWRPPRLPRPRPRPYDNPRP, the “shrunken log2 fold change” value is -0.263.

RRIRLRPPRLPRPRPRPCRNPRP: the “shrunken log2 fold change” value is -0.241.

As for RRIRPRPPRLPRPRPRPSIYPRP, the “shrunken log2 fold change” value is -0.584.

Regarding RRIRYRPPRLPRPRPRPMHEPRP, the “shrunken log2 fold change” value was -0.405.

RRIRWRPPRLPRPRPRPEAYPRP: the “shrunken log2 fold change” value stood at 0.212.

As for RRIRFRPPRLPRPRPRPWKGPRP, the “shrunken log2 fold change” value is -0.0869.

For RRIRNRPPRLPRPRPRPKNDPRP, the “shrunken log2 fold change” value is -0.0949.

As for RRIRCRPPRLPRPRPRPNTKPRP, the “shrunken log2 fold change” value is -0.358.

In the case of RRIRMRPPRLPRPRPRPGWIPRP, the “shrunken log2 fold change” value was -0.0121.

With RRIRSRPPRLPRPRPRPWLNPRP, the “shrunken log2 fold change” value is -0.119.

For the sequence RRIRCRPPRLPRPRPRPKKSPRP, the “shrunken log2 fold change” value is -0.0331.

Consider RRIRCRPPRLPRPRPRPHNFPRP, for which the “shrunken log2 fold change” value is -1.01.

For the sequence RRIRDRPPRLPRPRPRPGADPRP, the “shrunken log2 fold change” value was found to be 0.655.

As for RRIRYRPPRLPRPRPRPGNKPRP, the “shrunken log2 fold change” value was -0.292.

Regarding RRIRPRPPRLPRPRPRPSLFPRP, the “shrunken log2 fold change” value is -0.344.

Turning to RRIRTRPPRLPRPRPRPMSPPRP, the “shrunken log2 fold change” value is -0.152.

In the case of RRIRKRPPRLPRPRPRPNACPRP, the “shrunken log2 fold change” value was 0.0357.

Consider RRIRGRPPRLPRPRPRPTRAPRP, for which the “shrunken log2 fold change” value was determined as 1.04.

As to RRIRQRPPRLPRPRPRPWLRPRP, the “shrunken log2 fold change” value is -0.112.

For the sequence RRIRVRPPRLPRPRPRPGTSPRP, the “shrunken log2 fold change” value was -0.073.

Consider RRIRFRPPRLPRPRPRPSGRPRP, for which the “shrunken log2 fold change” value worked out at 0.0486.

On to RRIRNRPPRLPRPRPRPLHDPRP, for which the “shrunken log2 fold change” value is -0.178.

On to RRIRFRPPRLPRPRPRPDMIPRP, for which the “shrunken log2 fold change” value was -0.241.

On to RRIRGRPPRLPRPRPRPQHDPRP, for which the “shrunken log2 fold change” value is -0.000778.

RRIRMRPPRLPRPRPRPAWIPRP: the “shrunken log2 fold change” value amounted to 0.052.

RRIRWRPPRLPRPRPRPMWKPRP: the “shrunken log2 fold change” value was -0.0109.

As for RRIRYRPPRLPRPRPRPSNPPRP, the “shrunken log2 fold change” value was -0.512.

With RRIRVRPPRLPRPRPRPDNMPRP, the “shrunken log2 fold change” value was -0.868.

As to RRIRHRPPRLPRPRPRPWKHPRP, the “shrunken log2 fold change” value was -0.0222.

Take RRIRLRPPRLPRPRPRPKIMPRP: the “shrunken log2 fold change” value was -0.314.

Turning to RRIRSRPPRLPRPRPRPARVPRP, the “shrunken log2 fold change” value stood at 0.47.

Regarding RRIRARPPRLPRPRPRPCWMPRP, the “shrunken log2 fold change” value is -0.102.

For the sequence RRIRLRPPRLPRPRPRPRGSPRP, the “shrunken log2 fold change” value worked out at 0.16.

Regarding RRIRTRPPRLPRPRPRPEQPPRP, the “shrunken log2 fold change” value was found to be 0.309.

RRIRRRPPRLPRPRPRPEHIPRP: the “shrunken log2 fold change” value was -0.13.

As for RRIRIRPPRLPRPRPRPPWQPRP, the “shrunken log2 fold change” value turned out to be 1.02.

As for RRIRARPPRLPRPRPRPYSGPRP, the “shrunken log2 fold change” value is -0.0581.

On to RRIRNRPPRLPRPRPRPFVFPRP, for which the “shrunken log2 fold change” value was -0.0679.

In the case of RRIRPRPPRLPRPRPRPGCKPRP, the “shrunken log2 fold change” value stood at 0.368.

As for RRIRHRPPRLPRPRPRPLGDPRP, the “shrunken log2 fold change” value is 0.146.

Take RRIRKRPPRLPRPRPRPEWHPRP: the “shrunken log2 fold change” value was found to be 0.125.

Turning to RRIRVRPPRLPRPRPRPCCVPRP, the “shrunken log2 fold change” value was -0.146.

For the sequence RRIRSRPPRLPRPRPRPFKFPRP, the “shrunken log2 fold change” value is -0.438.

As to RRIRTRPPRLPRPRPRPQIEPRP, the “shrunken log2 fold change” value was -0.107.

Consider RRIRFRPPRLPRPRPRPLHQPRP, for which the “shrunken log2 fold change” value is -0.37.

In the case of RRIRHRPPRLPRPRPRPFYWPRP, the “shrunken log2 fold change” value was -0.0655.

In the case of RRIRARPPRLPRPRPRPMFSPRP, the “shrunken log2 fold change” value was -0.142.

For RRIRRRPPRLPRPRPRPRDLPRP, the “shrunken log2 fold change” value amounted to 0.427.

In the case of RRIRNRPPRLPRPRPRPAWDPRP, the “shrunken log2 fold change” value was determined as 0.151.

With RRIRRRPPRLPRPRPRPYKMPRP, the “shrunken log2 fold change” value came out at 0.187.

For the sequence RRIRKRPPRLPRPRPRPGNRPRP, the “shrunken log2 fold change” value stood at 0.143.

Consider RRIRIRPPRLPRPRPRPSHNPRP, for which the “shrunken log2 fold change” value was -1.06.

In the case of RRIRARPPRLPRPRPRPVRNPRP, the “shrunken log2 fold change” value came to 0.142.

Regarding RRIRPRPPRLPRPRPRPEEPPRP, the “shrunken log2 fold change” value worked out at 0.437.

Turning to RRIRSRPPRLPRPRPRPGILPRP, the “shrunken log2 fold change” value is -0.0441.

With RRIRIRPPRLPRPRPRPMSVPRP, the “shrunken log2 fold change” value worked out at 0.0466.

Regarding RRIRIRPPRLPRPRPRPVADPRP, the “shrunken log2 fold change” value turned out to be 0.0861.

Regarding RRIRHRPPRLPRPRPRPEKGPRP, the “shrunken log2 fold change” value was -0.00804.

As for RRIRKRPPRLPRPRPRPQPQPRP, the “shrunken log2 fold change” value worked out at 0.817.

Regarding RRIRVRPPRLPRPRPRPLSTPRP, the “shrunken log2 fold change” value is -0.0699.

As to RRIRTRPPRLPRPRPRPQELPRP, the “shrunken log2 fold change” value is 0.0724.

As to RRIRERPPRLPRPRPRPFNAPRP, the “shrunken log2 fold change” value was -0.328.

As to RRIRGRPPRLPRPRPRPNSGPRP, the “shrunken log2 fold change” value came to 0.00625.

As to RRIRHRPPRLPRPRPRPMAMPRP, the “shrunken log2 fold change” value stood at 0.00505.

Consider RRIRPRPPRLPRPRPRPCDEPRP, for which the “shrunken log2 fold change” value worked out at 0.0442.

On to RRIRGRPPRLPRPRPRPLGPPRP, for which the “shrunken log2 fold change” value amounted to 0.456.

In the case of RRIRRRPPRLPRPRPRPFGDPRP, the “shrunken log2 fold change” value is -0.0397.

Consider RRIRRRPPRLPRPRPRPEPEPRP, for which the “shrunken log2 fold change” value turned out to be 0.837.

For RRIRLRPPRLPRPRPRPQTSPRP, the “shrunken log2 fold change” value was -0.106.

In the case of RRIRDRPPRLPRPRPRPRGEPRP, the “shrunken log2 fold change” value worked out at 0.267.

For the sequence RRIRTRPPRLPRPRPRPQYKPRP, the “shrunken log2 fold change” value is -1.04.

Turning to RRIRQRPPRLPRPRPRPEYYPRP, the “shrunken log2 fold change” value is -0.306.

Turning to RRIRQRPPRLPRPRPRPFMHPRP, the “shrunken log2 fold change” value was -0.0117.

RRIRARPPRLPRPRPRPSQFPRP: the “shrunken log2 fold change” value was -0.0956.

Regarding RRIRTRPPRLPRPRPRPEMNPRP, the “shrunken log2 fold change” value was found to be 0.00876.

With RRIRNRPPRLPRPRPRPIHFPRP, the “shrunken log2 fold change” value is -0.263.

Regarding RRIRNRPPRLPRPRPRPDTPPRP, the “shrunken log2 fold change” value amounted to 0.0123.

With RRIRARPPRLPRPRPRPGSAPRP, the “shrunken log2 fold change” value amounted to 0.444.

Consider RRIRIRPPRLPRPRPRPGPRPRP, for which the “shrunken log2 fold change” value turned out to be 0.358.

For RRIRLRPPRLPRPRPRPYMPPRP, the “shrunken log2 fold change” value was -0.509.
